Patent US7741124B2, “Detection procedures for fibrinogen and/or fibrinogen derivatives” (priority 2003, dated 2010)

Tested on: vancomycin
Experiment: Vancomycin-reactivity with fibrinogen split products (t-PA incubated plasma) or BrCN-cleaved fibrinogen
Assay type: biochemical
Conditions: 50 μl 1000 IU/ml t-PA
Description: 25 μl P-Pool were incubated with 25 μl 0 mM or 15 mM CT in PBS for 60 min (RT). Then 50 μl 1000 IU/ml t-PA, 0.1% Triton X 100® in PBS were added. […] In addition, 10 mg/ml BrCN-cleaved fibrinogen in 6% BSA-PBS or in pooled serum were assayed in the FIATA.

B1: t-PA: t-PA, 1000 IU/ml in PBS, 0.1% Triton X 100 (protein, UniProt P00750 36-562, looked up)
Tissue-type plasminogen …: SYQVICRDEKTQMIYQQHQSWLRPVLRSNRVEYCWCNSGRAQCHSVPVKSCSEPRCFNGGTCQQALYFSDFVCQCPEGFAGKCCEIDTRATCYEDQGISYRGTWSTAESGAECTNWNSSALAQKPYSGRRPDAIRLGLGNHNYCRNPDRDSKPWCYVFKAGKYSSEFCSTPACSEGNSDCYFGNGSAYRGTHSLTESGASCLPWNSMILIGKVYTAQNPSAQALGLGKHNYCRNPDGDAKPWCHVLKNRRLTWEYCDVPSCSTCGLRQYSQPQFRIKGGLFADIASHPWQAAIFAKHRRSPGERFLCGGILISSCWILSAAHCFQERFPPHHLTVILGRTYRVVPGEEEQKFEVEKYIVHKEFDDDTYDNDIALLQLKSDSSRCAQESSVVRTVCLPPADLQLPDWTECELSGYGKHEALSPFYSERLKEAHVRLYPSSRCTSQHLLNRTVTDNMLCAGDTRSGGPQANLHDACQGDSGGPLVCLNDGRMTLVGIISWGLGCGQKDVPGVYTKVTNYLDWIRDNMRP
In the case of B1, the “time for 50% loss of vancomycin reactivity” value (15 mM CT-oxidized plasma) is reported as “about 1 h”, the “incubation time for complete loss of vancomycin reactivity” value (25 μl 15 mM CT-oxidized citrated plasma) is reported as 3 h and the “time for 50% loss of vancomycin reactivity” value (unoxidized plasma) is reported as 6 h.
